Assay results reported in patent US20210000909A1.

Target: PDZ1/2 domain (UniProt P78352)
Sequence (P78352 61-249 limits assumed): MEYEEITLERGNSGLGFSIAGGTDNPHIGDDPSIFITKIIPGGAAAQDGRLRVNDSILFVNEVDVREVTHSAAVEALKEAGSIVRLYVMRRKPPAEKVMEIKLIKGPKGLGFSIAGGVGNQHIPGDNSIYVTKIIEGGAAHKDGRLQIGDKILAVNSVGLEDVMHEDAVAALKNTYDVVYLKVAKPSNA

In the case of control chimeric peptide NA-1, the Kd is reported as 75.3 nM.
